From publication PMC7668044, “Insights into bacterial cell division from a structure of EnvC bound to the FtsX periplasmic domain” (Proceedings of the National Academy of Sciences of the …, 2020) come the findings set out here.

For the assay, the target named is T1, mature EnvC (murein hydrolase activator), non-tagged, co-expressed for crystallisation (E. coli, UniProt P37690 35-419).
T1 construct: EnvC, E. coli, mature protein
T1 sequence (looked up): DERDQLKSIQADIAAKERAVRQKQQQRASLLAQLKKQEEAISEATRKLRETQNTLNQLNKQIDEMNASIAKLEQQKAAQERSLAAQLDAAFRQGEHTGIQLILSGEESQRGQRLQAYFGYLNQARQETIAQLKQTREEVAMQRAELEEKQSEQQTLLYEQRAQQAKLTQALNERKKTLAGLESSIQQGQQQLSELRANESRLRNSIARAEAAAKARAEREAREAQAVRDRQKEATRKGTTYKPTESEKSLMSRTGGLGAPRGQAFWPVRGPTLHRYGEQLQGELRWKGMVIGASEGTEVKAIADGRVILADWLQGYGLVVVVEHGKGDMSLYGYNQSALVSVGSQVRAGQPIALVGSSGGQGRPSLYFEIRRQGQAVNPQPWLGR
The assay is described as follows: crystal structure; X-ray, 2.1 Å, space group P2(1)2(1)2(1); His-tagged FtsX periplasmic domain and non-tagged EnvC coexpressed and copurified by Ni-IMAC; molecular replacement. To be noted: both partners purified.

B1: FtsX periplasmic domain, histidine-tagged, co-expressed for crystallisation (domain or fragment, E. coli)
chain: QITVYLQKTLDDDAAAGVVAQLQAEQGVEKVNYLSREDALGEFRNWSGFGGALDMLEENPLPAVAVVIPKLDFQGTESLNTLRDRITQINGIDEVRMDDS
notes: FtsX periplasmic domain (between the first and second transmembrane helix), E. coli; The two-hybrid construct of the same domain is residues 110 to 209; also called FtsX I; FtsX II; source: E. coli C43(DE3), coexpressed with non-tagged EnvC from a pETDuet1-based vector, copurified by Ni-IMAC
B1: the “stoichiometry N” value is 2 FtsX periplasmic domains per EnvC.
